Experimental data reported in paper PMC12057046, “Elucidation of short linear motif-based interactions of the MIT and rhodanese domains of the ubiquitin-specific protease 8” (Biology Direct, 2025).

B1: TET3 peptide 1705-1720 (methylcytosine dioxygenase TET3), 16-mer library wild type / USP8 rhodanese domain (ubiquitin carboxyl-terminal hydrolase 8, residues 174-317) (parent)
chain 1: GLALWEAKMKQLAERA
chain 2: KCETKEKGAITAKELYTMMTDKNISLIIMDARRMQDYQDSCILHSLSVPEEAISPGVTASWIEAHLPDDSKDTWKKRGNVEYVVLLDWFSSAKDLQIGTTLRSLKDALFKWESKTVLRNEPLVLEGGYENWLLCYPQYTTNAKV

Variants of: B1
Experiment: peptide-phage display deep mutational scan (M13, 16-mer library, displayed with a C-terminal GGGSG linker encoded by the 3' flank) selected against the GST-tagged USP8 rhodanese domain, four rounds; NGS counts summed over selection …
Details: with USP8 rhodanese domain (ubiquitin carboxyl-terminal hydrolase 8, residues 174-317), 10 µg GST-bait on MaxiSorp, pre-cleared on GST, 2 h at 4 °C, five washes with 0.05% Tween 20 in PBS, not graded, scale: average over two replicas of the peptide's fractional NGS count

Compared with chain 1 GLALWFAKMKQLAERA [chain 1 E6F], chain 1 GLALWHAKMKQLAERA [chain 1 E6H] is higher in screen value: 8.66e-06 for the first, 3.9e-05 for the second.

Going from chain 1 GLALWDAKMKQLAERA [chain 1 E6D] to chain 1 GLALWAAKMKQLAERA [chain 1 E6A], the screen value falls from 9.38e-05 to 8.66e-06.

First: chain 1 GLALWSAKMKQLAERA [chain 1 E6S]
Second: chain 1 GLALWGAKMKQLAERA [chain 1 E6G]
The screen value of the first is higher: 0.000221 for the first, 0.000196 for the second.

chain 1 GLALWYAKMKQLAERA [chain 1 E6Y] and chain 1 GLALWVAKMKQLAERA [chain 1 E6V] are the same in screen value: 1.15e-05 for the first, 1.15e-05 for the second.

Compared with chain 1 RLALWEAKMKQLAERA [chain 1 G1R], chain 1 KLALWEAKMKQLAERA [chain 1 G1K] is higher in screen value: 4.33e-06 for the first, 2.01e-05 for the second.

Going from chain 1 QLALWEAKMKQLAERA [chain 1 G1Q] to chain 1 ELALWEAKMKQLAERA [chain 1 G1E], the screen value rises from 8.66e-06 to 6.35e-05.

Compared with chain 1 NLALWEAKMKQLAERA [chain 1 G1N], chain 1 GLADWEAKMKQLAERA [chain 1 L4D] is lower in screen value: 4.46e-05 for the first, 4.33e-06 for the second.

Compared with chain 1 GLANWEAKMKQLAERA [chain 1 L4N], chain 1 GLAQWEAKMKQLAERA [chain 1 L4Q] is lower in screen value: 0.00113 for the first, 0.00044 for the second.

Compared with chain 1 GLAVWEAKMKQLAERA [chain 1 L4V], chain 1 GLAHWEAKMKQLAERA [chain 1 L4H] is lower in screen value: 0.00974 for the first, 1.3e-05 for the second.

Compared with chain 1 GLAKWEAKMKQLAERA [chain 1 L4K], chain 1 GLARWEAKMKQLAERA [chain 1 L4R] is higher in screen value: 4.33e-06 for the first, 0.000374 for the second.

Going from chain 1 GLATWEAKMKQLAERA [chain 1 L4T] to chain 1 GLAGWEAKMKQLAERA [chain 1 L4G], the screen value falls from 0.000596 to 2.3e-05.

Compared with chain 1 GLAIWEAKMKQLAERA [chain 1 L4I], chain 1 GLAFWEAKMKQLAERA [chain 1 L4F] is lower in screen value: 0.211 for the first, 0.000225 for the second.

Going from chain 1 GLAEWEAKMKQLAERA [chain 1 L4E] to chain 1 GLAMWEAKMKQLAERA [chain 1 L4M], the screen value rises from 9.1e-05 to 0.0286.

Going from chain 1 GLAAWEAKMKQLAERA [chain 1 L4A] to chain 1 GLAPWEAKMKQLAERA [chain 1 L4P], the screen value falls from 9.18e-05 to 4.33e-06.

Compared with chain 1 GLASWEAKMKQLAERA [chain 1 L4S], chain 1 GLALWEAKMKQLAEKA [chain 1 R15K] is higher in screen value: 4.74e-05 for the first, 0.000386 for the second.

Going from chain 1 GLALWEAKMKQLAEPA [chain 1 R15P] to chain 1 GLALWEAKMKQLAEHA [chain 1 R15H], the screen value falls from 0.0867 to 0.000187.

Compared with chain 1 GLALWEAKMKQLAEFA [chain 1 R15F], chain 1 GLALWEAKMKQLAEMA [chain 1 R15M] is higher in screen value: 2.3e-05 for the first, 0.000392 for the second.

Going from chain 1 GLALWEAKMKQLAENA [chain 1 R15N] to chain 1 GLALWEAKMKQLAEDA [chain 1 R15D], the screen value falls from 8.62e-05 to 7.21e-05.

Compared with chain 1 GLALWEAKMKQLAELA [chain 1 R15L], chain 1 GLALWEAKMKQLAEAA [chain 1 R15A] is lower in screen value: 0.000427 for the first, 4.33e-06 for the second.

Going from chain 1 GLALWEAKMKQLAEGA [chain 1 R15G] to chain 1 GLALWEAKMKQLAEEA [chain 1 R15E], the screen value falls from 0.000816 to 0.00031.

Going from chain 1 GLALWEAKMKQLNERA [chain 1 A13N] to chain 1 GLALWEAKMKQLDERA [chain 1 A13D], the screen value falls from 0.000273 to 2.6e-05.

Compared with chain 1 GLALWEAKMKQLLERA [chain 1 A13L], chain 1 GLALWEAKMKQLVERA [chain 1 A13V] is higher in screen value: 0.000154 for the first, 0.0163 for the second.

Compared with chain 1 GLALWEAKMKQLKERA [chain 1 A13K], chain 1 GLALWEAKMKQLEERA [chain 1 A13E] is higher in screen value: 2.6e-05 for the first, 0.0925 for the second.

Compared with chain 1 GLALWEAKMKQLHERA [chain 1 A13H], chain 1 GLALWEAKMKQLIERA [chain 1 A13I] is lower in screen value: 0.0027 for the first, 1.3e-05 for the second.

First: chain 1 GLALWEAKMKQLTERA [chain 1 A13T]
Second: chain 1 GLALWEAKMKQLQERA [chain 1 A13Q]
The screen value of the first is lower: 3.6e-05 for the first, 0.00219 for the second.

First: chain 1 GLALWEAKMKQLPERA [chain 1 A13P]
Second: chain 1 GLALWEAKMKQLMERA [chain 1 A13M]
The screen value of the first is lower: 5.48e-05 for the first, 5.89e-05 for the second.

First: chain 1 GLALWEAKMKQLGERA [chain 1 A13G]
Second: chain 1 GLALWEAKMKQLYERA [chain 1 A13Y]
The screen value of the first is higher: 0.0144 for the first, 2.45e-05 for the second.

Compared with chain 1 GLSLWEAKMKQLAERA [chain 1 A3S], chain 1 GLPLWEAKMKQLAERA [chain 1 A3P] is higher in screen value: 0.000145 for the first, 0.000452 for the second.

Compared with chain 1 GLMLWEAKMKQLAERA [chain 1 A3M], chain 1 GLTLWEAKMKQLAERA [chain 1 A3T] is lower in screen value: 0.00023 for the first, 5.18e-05 for the second.

Going from chain 1 GLELWEAKMKQLAERA [chain 1 A3E] to chain 1 GLVLWEAKMKQLAERA [chain 1 A3V], the screen value falls from 0.064 to 0.000173.

Going from chain 1 GLQLWEAKMKQLAERA [chain 1 A3Q] to chain 1 GLLLWEAKMKQLAERA [chain 1 A3L], the screen value falls from 0.00817 to 4.33e-06.

Compared with chain 1 GLHLWEAKMKQLAERA [chain 1 A3H], chain 1 GLDLWEAKMKQLAERA [chain 1 A3D] is higher in screen value: 8.66e-06 for the first, 0.0209 for the second.

Going from chain 1 GLKLWEAKMKQLAERA [chain 1 A3K] to chain 1 GLILWEAKMKQLAERA [chain 1 A3I], the screen value falls from 1.3e-05 to 4.33e-06.

Going from chain 1 GLYLWEAKMKQLAERA [chain 1 A3Y] to chain 1 GLGLWEAKMKQLAERA [chain 1 A3G], the screen value falls from 0.000177 to 3.88e-05.

First: chain 1 GLFLWEAKMKQLAERA [chain 1 A3F]
Second: chain 1 GLWLWEAKMKQLAERA [chain 1 A3W]
The screen value of the first is lower: 4.33e-06 for the first, 9.64e-05 for the second.

First: chain 1 GLALWEAKMKQRAERA [chain 1 L12R]
Second: chain 1 GLALWEAKMKQKAERA [chain 1 L12K]
The screen value of the first is higher: 1.15e-05 for the first, 4.33e-06 for the second.

Going from chain 1 GLALWEAKMKQFAERA [chain 1 L12F] to chain 1 GLALWEAKMKQAAERA [chain 1 L12A], the screen value rises from 8.66e-06 to 1.15e-05.

chain 1 GLALWEAKMKQIAERA [chain 1 L12I] and chain 1 GLALWEAKMKQSAERA [chain 1 L12S] are the same in screen value: 4.33e-06 for the first, 4.33e-06 for the second.

Compared with chain 1 GLALWEAKMKQMAERA [chain 1 L12M], chain 1 GLALWEAKMKQLASRA [chain 1 E14S] is higher in screen value: 4.33e-06 for the first, 7.32e-05 for the second.

Compared with chain 1 GLALWEAKMKQLAARA [chain 1 E14A], chain 1 GLALWEAKMKQLAIRA [chain 1 E14I] is lower in screen value: 4.18e-05 for the first, 4.33e-06 for the second.

Going from chain 1 GLALWEAKMKQLAFRA [chain 1 E14F] to chain 1 GLALWEAKMKQLALRA [chain 1 E14L], the screen value rises from 0.000199 to 0.000367.

Compared with chain 1 GLALWEAKMKQLAQRA [chain 1 E14Q], chain 1 GLALWEAKMKQLAMRA [chain 1 E14M] is higher in screen value: 4.03e-05 for the first, 0.000615 for the second.

First: chain 1 GLALWEAKMKQLAGRA [chain 1 E14G]
Second: chain 1 GLALWEAKMKQLAYRA [chain 1 E14Y]
The screen value of the first is higher: 0.000341 for the first, 2.3e-05 for the second.

Compared with chain 1 GLALWEAKMKQLADRA [chain 1 E14D], chain 1 GLALWEAKMKQLAWRA [chain 1 E14W] is lower in screen value: 2.73e-05 for the first, 4.33e-06 for the second.

Going from chain 1 GLALWEAKMKQLAVRA [chain 1 E14V] to chain 1 GLALWEAKMKQLANRA [chain 1 E14N], the screen value falls from 0.000238 to 6.5e-05.

First: chain 1 GLALWEAKMKQLATRA [chain 1 E14T]
Second: chain 1 GLALWEAKQKQLAERA [chain 1 M9Q]
The screen value of the first is lower: 8.66e-06 for the first, 3.16e-05 for the second.

Compared with chain 1 GLALWEAKHKQLAERA [chain 1 M9H], chain 1 GLALWEAKNKQLAERA [chain 1 M9N] is lower in screen value: 3.75e-05 for the first, 1.73e-05 for the second.
